Test results taken from patent US20200297760A1 (JUNO THERAPEUTICS, published 2020).

Assays:
HLA-A*03:01 = biological target: T1, HLA-A*03:01 (human); test: REVEAL MHC-peptide binding assay, recombinant HLA
T1 construct: recombinant MHC class I molecule incubated with the synthetic peptide (REVEAL, ProImmune)
Description: (§1) Specifically, assessment was of a series of overlapping 9-mer peptides derived from the sequence […] (set forth in SEQ ID NO: 7), which contains a portion of the CD28 transmembrane domain and 4-1BB costimulatory domain spanning the junction between the domains (bond joining the two amino acids noted in underline). In addition, a series of overlapping 9-mer peptides of each of a number of different variants of this portion also were assessed, each variant containing a mutation or mutations in this region as described in Example 2.
(§2) The various 9-mer overlapping peptides were synthesized and their purity tested by MALDI-TOF Mass Spectrometry.

HLA-A*02:01 = biological target: T2, HLA-A*02:01 (human); test: REVEAL MHC-peptide binding assay, recombinant HLA
T2 construct: recombinant MHC class I molecule incubated with the synthetic peptide (REVEAL, ProImmune)
Description: as §1, §2

[1] = biological target: HLA-B*08:01 (recombinant MHC class I molecule) (human); test: REVEAL MHC-peptide binding assay, recombinant HLA-B*08:01
Description: as §1, §2

[2] = biological target: HLA-A*11:01 (recombinant MHC class I molecule) (human); test: REVEAL MHC-peptide binding assay, recombinant HLA-A*11:01
Description: as §1, §2

| Binder | In Vitro Score (HLA-A*03:01) | In Vitro Score (HLA-A*02:01) | In Vitro Score [1] | In Vitro Score [2] |
| --- | --- | --- | --- | --- |
| IFWVKRGRK (synthetic 9-mer of the CD28-4-1BB junction; mutation: none) | 20.5 % of positive control peptide | 4.5 % of positive control peptide | – | – |
| IFWVLRGRK (synthetic 9-mer variant; the entry already carries the change) | 19.5 % of positive control peptide | 2.9 % of positive control peptide | – | – |
| IFWVQRGSK (synthetic 9-mer variant; the entry already carries the changes) | 20.3 % of positive control peptide | 33.5 % of positive control peptide | – | – |
| IIFWVKRGH (synthetic 9-mer variant; the entry already carries the change) | 26.6 % of positive control peptide | 5.3 % of positive control peptide | – | – |
| IIFWVQRGN (synthetic 9-mer variant; the entry already carries the changes) | 3.6 % of positive control peptide | 13 % of positive control peptide | – | – |
| IIFWVQRGS (synthetic 9-mer variant; the entry already carries the changes) | 4.5 % of positive control peptide | 22.4 % of positive control peptide | – | – |
| FWVKRGRKK (synthetic 9-mer of the CD28-4-1BB junction; mutation: none) | 2.2 % of positive control peptide | 3.5 % of positive control peptide | – | – |
| FWVARGRKK (synthetic 9-mer variant; the entry already carries the change) | 5 % of positive control peptide | 13.5 % of positive control peptide | – | – |
| FWVHRGRKK (synthetic 9-mer variant; the entry already carries the change) | 3.6 % of positive control peptide | 1.6 % of positive control peptide | – | – |
| FWVKRGAKK (synthetic 9-mer variant; the entry already carries the change) | 4.7 % of positive control peptide | 4.3 % of positive control peptide | – | – |
| FWVKRGHKK (synthetic 9-mer variant; the entry already carries the change) | 4.1 % of positive control peptide | 2.6 % of positive control peptide | – | – |
| FWVKRGLKK (synthetic 9-mer variant; the entry already carries the change) | 2.7 % of positive control peptide | – | – | – |
| FWVKRGNKK (synthetic 9-mer variant; the entry already carries the change) | 3.6 % of positive control peptide | – | – | – |
| FWVKRGSKK (synthetic 9-mer variant; the entry already carries the change) | 5.9 % of positive control peptide | 1.9 % of positive control peptide | – | – |
| FWVLRGRKK (synthetic 9-mer variant; the entry already carries the change) | 0.4 % of positive control peptide | 3.3 % of positive control peptide | – | – |
| FWVQRGAKK (synthetic 9-mer variant; the entry already carries the changes) | 2.7 % of positive control peptide | 2.2 % of positive control peptide | – | – |
| FWVQRGNKK (synthetic 9-mer variant; the entry already carries the changes) | 1.3 % of positive control peptide | 3.1 % of positive control peptide | – | – |
| FWVQRGRKK (synthetic 9-mer variant; the entry already carries the change) | 6.4 % of positive control peptide | 5.2 % of positive control peptide | – | – |
| FWVQRGSKK (synthetic 9-mer variant; the entry already carries the changes) | 1.9 % of positive control peptide | 0.8 % of positive control peptide | – | – |
| FWVSRGRKK (synthetic 9-mer variant; the entry already carries the change) | 2.9 % of positive control peptide | 1.5 % of positive control peptide | – | – |

| Binder | In Vitro Score (HLA-A*03:01) | In Vitro Score (HLA-A*02:01) | In Vitro Score [1] | In Vitro Score [2] |
| --- | --- | --- | --- | --- |
| AFIIFWVKR [Synthetic peptide AFIIFWVKR] | – | – | 1.9 score, % of positive control peptide | 25.9 score, % of positive control peptide |
| AFIIFWVLR [Synthetic peptide AFIIFWVLR] | – | – | 0.2 score, % of positive control peptide | 17.2 score, % of positive control peptide |
| AFIIFWVQR [Synthetic peptide AFIIFWVQR] | – | – | 0 score, % of positive control peptide | 15 score, % of positive control peptide |
| FIIFWVKRG [Synthetic peptide FIIFWVKRG] | – | – | 0.1 score, % of positive control peptide | 0.4 score, % of positive control peptide |
| FIIFWVLRG [Synthetic peptide FIIFWVLRG] | – | – | 0.2 score, % of positive control peptide | 2.4 score, % of positive control peptide |
| FIIFWVQRG [Synthetic peptide FIIFWVQRG] | – | – | 0.6 score, % of positive control peptide | 1.5 score, % of positive control peptide |
| FIIFWVSRG [Synthetic peptide FIIFWVSRG] | – | – | 0.4 score, % of positive control peptide | 5.1 score, % of positive control peptide |
| IFWVKRGRK [Synthetic peptide IFWVKRGRK] | – | – | 0.4 score, % of positive control peptide | 29.3 score, % of positive control peptide |
| IFWVLRGRK [Synthetic peptide IFWVLRGRK] | – | – | 0 score, % of positive control peptide | 29.3 score, % of positive control peptide |
| IFWVQRGSK [Synthetic peptide IFWVQRGSK] | – | – | 0 score, % of positive control peptide | 103 score, % of positive control peptide |
| FWVKRGRKK [Synthetic peptide FWVKRGRKK] | – | – | 0 score, % of positive control peptide | 6.5 score, % of positive control peptide |
| FWVARGRKK [Synthetic peptide FWVARGRKK] | – | – | 0 score, % of positive control peptide | – |
| FWVHRGRKK [Synthetic peptide FWVHRGRKK] | – | – | 0 score, % of positive control peptide | 5.6 score, % of positive control peptide |
| FWVKRGAKK [Synthetic peptide FWVKRGAKK] | – | – | 0.3 score, % of positive control peptide | 13.2 score, % of positive control peptide |
| FWVKRGHKK [Synthetic peptide FWVKRGHKK] | – | – | 0.4 score, % of positive control peptide | 27.6 score, % of positive control peptide |
| FWVKRGLKK [Synthetic peptide FWVKRGLKK] | – | – | 6.3 score, % of positive control peptide | 25.3 score, % of positive control peptide |
| FWVKRGNKK [Synthetic peptide FWVKRGNKK] | – | – | 0.1 score, % of positive control peptide | 7.3 score, % of positive control peptide |
| FWVKRGSKK [Synthetic peptide FWVKRGSKK] | – | – | 0.1 score, % of positive control peptide | 5.6 score, % of positive control peptide |
| FWVLRGRKK [Synthetic peptide FWVLRGRKK] | – | – | 0 score, % of positive control peptide | 5 score, % of positive control peptide |
| FWVQRGAKK [Synthetic peptide FWVQRGAKK] | – | – | 0 score, % of positive control peptide | 18.3 score, % of positive control peptide |

| Binder | In Vitro Score (HLA-A*03:01) | In Vitro Score (HLA-A*02:01) | In Vitro Score [1] | In Vitro Score [2] |
| --- | --- | --- | --- | --- |
| FWVQRGNKK [Synthetic peptide FWVQRGNKK] | – | – | 0 score, % of positive control peptide | 5.9 score, % of positive control peptide |
| FWVQRGRKK [Synthetic peptide FWVQRGRKK] | – | – | 1.9 score, % of positive control peptide | 5.7 score, % of positive control peptide |
| FWVQRGSKK [Synthetic peptide FWVQRGSKK] | – | – | 0 score, % of positive control peptide | 6.8 score, % of positive control peptide |
| FWVSRGRKK [Synthetic peptide FWVSRGRKK] | – | – | 0 score, % of positive control peptide | 6.3 score, % of positive control peptide |
| WVKRGRKKL [Synthetic peptide WVKRGRKKL] | – | – | 28.5 score, % of positive control peptide | 4.8 score, % of positive control peptide |
| WVHRGRKKL [Synthetic peptide WVHRGRKKL] | – | – | 19.2 score, % of positive control peptide | 5.6 score, % of positive control peptide |
| WVKRGLKKL [Synthetic peptide WVKRGLKKL] | – | – | 65.7 score, % of positive control peptide | 22.1 score, % of positive control peptide |
| WVKRGRKKS [Synthetic peptide WVKRGRKKS] | – | – | 4.3 score, % of positive control peptide | 6.7 score, % of positive control peptide |
| WVLRGRKKL [Synthetic peptide WVLRGRKKL] | – | – | 4 score, % of positive control peptide | 3.2 score, % of positive control peptide |
| WVQRGAKKL [Synthetic peptide WVQRGAKKL] | – | – | 11.4 score, % of positive control peptide | 3.8 score, % of positive control peptide |
| WVQRGSKKL [Synthetic peptide WVQRGSKKL] | – | – | – | 5.9 score, % of positive control peptide |
| WVSRGRKKL [Synthetic peptide WVSRGRKKL] | – | – | 6.2 score, % of positive control peptide | 4.4 score, % of positive control peptide |
| VAFIIFWVA [Synthetic peptide VAFIIFWVA] | – | – | 0 score, % of positive control peptide | 2.8 score, % of positive control peptide |
| VAFIIFWVH [Synthetic peptide VAFIIFWVH] | – | – | 0 score, % of positive control peptide | 12.3 score, % of positive control peptide |
| VAFIIFWVL [Synthetic peptide VAFIIFWVL] | – | – | 0 score, % of positive control peptide | 0.2 score, % of positive control peptide |
| VAFIIFWVQ [Synthetic peptide VAFIIFWVQ] | – | – | 0.2 score, % of positive control peptide | 3.9 score, % of positive control peptide |
| IIFWVKRGH [Synthetic peptide IIFWVKRGH] | – | – | 0.1 score, % of positive control peptide | 19.5 score, % of positive control peptide |
| IIFWVQRGN [Synthetic peptide IIFWVQRGN] | – | – | 0 score, % of positive control peptide | 29 score, % of positive control peptide |
| IIFWVQRGS [Synthetic peptide IIFWVQRGS] | – | – | 0.1 score, % of positive control peptide | 16.9 score, % of positive control peptide |
